For test [1], the target named is mouse Slo1 (mSlo1) BK channel α subunit, mbr5 splice variant (mouse).
Test [2] shares this target. The source holds these as a separate data set.

Numbering of substitutions follows the chain as printed. Numbers in names are those of the source.

B1: human BK channel β2 subunit C1S (C84S) (natural protein)
chain: MFIWTSGRTSSSYRHDEKRNIYQKIRDHDLLDKRKTVTALKAGEDRAILLGLAMMVCSIMMYFLLGITLLRSYMQSVWTEESQSTLLNASITETFNCSFSCGPDCWKLSQYPCLQVYVNLTSSGEKLLLYHTEETIKINQKCSYIPKCGKNFEESMSLVNVVMENFRKYQHFSCYSDPEGNQKSVILTKLYSSNVLFHSLFWPTCMMAGGVAIVAMVKLTQYLSLLCERIQRINR
On to B1, for which the experimental rectification ratio Rβ2* of mSlo1+β2(C1S), not corrected for unbinding in test [1] was found to be 1.22. The molecule further displayed an unbinding probability (q), from the non-inactivating offset of currents, inside-out patches of HEK293 cells, 10 μM Ca2+ in test [2] of 0.48.

B2: human BK channel β2 subunit C6S (C142S) (natural protein)
chain: B1 chain with S84C, C142S
B2 registered an unbinding probability (q), from the non-inactivating offset of currents, inside-out patches of HEK293 cells, 10 μM Ca2+ in test [2] of 0.41.

B3: human BK channel β2 subunit (KCNMB2), wild type (natural protein)
chain: B1 chain with S84C
In turn, B3 had an unbinding probability (q), from the non-inactivating offset of currents, inside-out patches of HEK293 cells, 10 μM Ca2+ in test [2] of 0.07.

B4: human BK channel β2 subunit C4S (C105S) (natural protein)
chain: B1 chain with S84C, C105S
In test [2], B4 registered an unbinding probability (q), from the non-inactivating offset of currents, inside-out patches of HEK293 cells, 10 μM Ca2+ of 0.08.

B5: human BK channel β2 subunit C2S (C97S) (natural protein)
chain: B1 chain with S84C, C97S
Regarding B5, in test [1], the experimental rectification ratio Rβ2* of mSlo1+β2(C2S), not corrected for unbinding is 1.43. For the same molecule, the unbinding probability (q), from the non-inactivating offset of currents, inside-out patches of HEK293 cells, 10 μM Ca2+ in test [2] amounted to 0.09.

B6: human BK channel β2 subunit C3S (C101S) (natural protein)
chain: B1 chain with S84C, C101S
As to B6, the unbinding probability (q), from the non-inactivating offset of currents, inside-out patches of HEK293 cells, 10 μM Ca2+ in test [2] amounted to 0.09.

B7: human BK channel β2 subunit C8S (C174S) (natural protein)
chain: B1 chain with S84C, C174S
B7 yielded an unbinding probability (q), from the non-inactivating offset of currents, inside-out patches of HEK293 cells, 10 μM Ca2+ in test [2] of 0.38.

B8: human BK channel β2 subunit C5S (C113S) (natural protein)
chain: B1 chain with S84C, C113S
As to B8, the unbinding probability (q), from the non-inactivating offset of currents, inside-out patches of HEK293 cells, 10 μM Ca2+ in test [2] is 0.66.

B9: human BK channel β2 subunit C7S (C148S) (natural protein)
chain: B1 chain with S84C, C148S
Take B9: the unbinding probability (q), from the non-inactivating offset of currents, inside-out patches of HEK293 cells, 10 μM Ca2+ in test [2] stood at 0.08.

Source of the values: publication PMC6298698.
